Test results as given in patent publication US20250188176A1 (INVETX, published 2025).
Where a chain is given by its changes, count along the chain named.

T1: Extracellular domain (ECD) of the canine IL-4 receptor alpha-V5 epitope-AviTag-His Tag (canine)
T1 construct: monomeric form isolated by size exclusion; also called canine IL-4RA-V5-Avi-His; canine IL-4RA
T1 chain: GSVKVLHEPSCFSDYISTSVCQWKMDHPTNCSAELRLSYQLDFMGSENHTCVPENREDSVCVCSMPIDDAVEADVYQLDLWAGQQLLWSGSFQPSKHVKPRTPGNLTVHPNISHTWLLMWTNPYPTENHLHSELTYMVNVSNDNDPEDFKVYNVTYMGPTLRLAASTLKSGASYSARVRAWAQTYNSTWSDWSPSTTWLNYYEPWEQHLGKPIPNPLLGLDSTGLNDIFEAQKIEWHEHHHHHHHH

T2: Extracellular domain (ECD) of the canine IL-4 receptor alpha-AviTag-His Tag (canine)
T2 construct: expressed in CHO cells; also called canine IL-4RA; canine IL4Ra
T2 chain: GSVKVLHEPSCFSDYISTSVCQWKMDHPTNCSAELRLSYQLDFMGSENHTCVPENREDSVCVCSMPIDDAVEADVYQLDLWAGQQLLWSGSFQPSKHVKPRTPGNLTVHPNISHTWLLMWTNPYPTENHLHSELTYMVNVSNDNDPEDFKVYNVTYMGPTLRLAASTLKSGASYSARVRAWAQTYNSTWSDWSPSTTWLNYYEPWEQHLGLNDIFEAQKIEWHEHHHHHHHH

B1: TB640_005 Fab-SASA VL-I33P (Fab, V domains shown)
VH: EVQLVESGGDLVKPGGSLRLSCVASGFTFRDYAMTWVRQAPGKGLQWVSLISGSGGKTYYADAVKGRFTISRDNAKNTLYLQMNSLRAEDTAVYYCAVDRLTKTIRPQYYGLWVWGQGTLVTVSS
VL: DIVMTQTPLSLSVSPGETASISCRSSQSLLYSPGYNYLDWYLQKPGQSPQGLIYLGSKRASGVPDRFSGSGSGTDFTLRISRVEANDTGVYYCMQGLQSPLTFGQGTKLEIKR
notes: not shown: SASA tag then His-tag
B2: TB640_005 Fab-SASA VL-G96P (Fab, V domains shown)
VH: B1 VH
VL: B1 VL with P33I, G96P
notes: as for B1
B3: TB640_005 Fab-SASA VL-S57H (Fab, V domains shown)
VH: B1 VH
VL: B1 VL with P33I, S57H
notes: as for B1
B4: TB640_005 Fab-SASA VL-Y35M (Fab, V domains shown)
VH: B1 VH
VL: B1 VL with P33I, Y35M
notes: as for B1
B5: TB640_005 Fab-SASA VL-L101N (Fab, V domains shown)
VH: B1 VH
VL: B1 VL with P33I, L101N
notes: as for B1
B6: TB640_005 Fab-SASA VL-L30A (Fab, V domains shown)
VH: B1 VH
VL: B1 VL with L30A, P33I
notes: as for B1
B7: TB640_005 Fab-SASA VL-Q27T (Fab, V domains shown)
VH: B1 VH
VL: B1 VL with Q27T, P33I
notes: as for B1
B8: TB640_005 Fab-SASA VL-L30T (Fab, V domains shown)
VH: B1 VH
VL: B1 VL with L30T, P33I
notes: as for B1
B9: TB640_005 Fab-SASA VL-S57T (Fab, V domains shown)
VH: B1 VH
VL: B1 VL with P33I, S57T
notes: as for B1
B10: TB640_005 Fab-SASA VL-T102N (Fab, V domains shown)
VH: B1 VH
VL: B1 VL with P33I, T102N
notes: as for B1
B11: TB640_005 Fab-SASA VL-T102S (Fab, V domains shown)
VH: B1 VH
VL: B1 VL with P33I, T102S
notes: as for B1
B12: TB640_005 Fab-SASA VL-I33A (Fab, V domains shown)
VH: B1 VH
VL: B1 VL with P33A
notes: as for B1
B13: TB640_005 Fab-SASA VL-S57N (Fab, V domains shown)
VH: B1 VH
VL: B1 VL with P33I, S57N
notes: as for B1
B14: TB640_005 Fab-SASA VL-L55M (Fab, V domains shown)
VH: B1 VH
VL: B1 VL with P33I, L55M
notes: as for B1
B15: TB640_005 Fab-SASA VL-Q27L (Fab, V domains shown)
VH: B1 VH
VL: B1 VL with Q27L, P33I
notes: as for B1
B16: TB640_005 Fab-SASA VL-Q95N (Fab, V domains shown)
VH: B1 VH
VL: B1 VL with P33I, Q95N
notes: as for B1
B17: TB640_005 Fab-SASA VL-Q27H (Fab, V domains shown)
VH: B1 VH
VL: B1 VL with Q27H, P33I
notes: as for B1
B18: TB640_005 Fab-SASA VL-Q27E (Fab, V domains shown)
VH: B1 VH
VL: B1 VL with Q27E, P33I
notes: as for B1
B19: TB640_005 Fab-SASA VL-I33V (Fab, V domains shown)
VH: B1 VH
VL: B1 VL with P33V
notes: as for B1
B20: TB640_005 Fab-SASA VL-T102L (Fab, V domains shown)
VH: B1 VH
VL: B1 VL with P33I, T102L
notes: as for B1
B21: TB640_005 Fab-SASA VL-T102G (Fab, V domains shown)
VH: B1 VH
VL: B1 VL with P33I, T102G
notes: as for B1
B22: TB640_005 Fab-SASA VL-A60M (Fab, V domains shown)
VH: B1 VH
VL: B1 VL with P33I, A60M
notes: as for B1
B23: FJP05A03-H + 21188-L (antibody, V domains shown)
VH: B1 VH with F27L, T28P, T35A, V48L
VL: B1 VL with L30T, P33I, L42M, P64S, T74A, R79K, N86D, T88A, T102G
B24: Gfmix_PTH-H + 21188-L (antibody, V domains shown)
VH: B1 VH with T28P, V48L, V114H
VL: B1 VL with L30T, P33I, L42M, P64S, T74A, R79K, N86D, T88A, T102G
B25: FJP07H09-H + 21188-L (antibody, V domains shown)
VH: B1 VH with T35D, V48L, V114S
VL: B1 VL with L30T, P33I, L42M, P64S, T74A, R79K, N86D, T88A, T102G
B26: Fjmix_PS-H + 21188-L (antibody, V domains shown)
VH: B1 VH with T28P, T35D, V48L, V114S
VL: B1 VL with L30T, P33I, L42M, P64S, T74A, R79K, N86D, T88A, T102G
B27: FJP06D01-H + 21188-L (antibody, V domains shown)
VH: B1 VH with T28P, T35D, V48L
VL: B1 VL with L30T, P33I, L42M, P64S, T74A, R79K, N86D, T88A, T102G
B28: FJP05A03-H + GFmix_THS-L (antibody, V domains shown)
VH: B1 VH with F27L, T28P, T35A, V48L
VL: B1 VL with L30T, P33I, L42M, P64S, T74A, R79K, N86D, T88A, Q98H, T102G
B29: GFmix_PTH-H + FJP10A09-L (antibody, V domains shown)
VH: B1 VH with T28P, V48L, V114H
VL: B1 VL with L30T, P33I, L42M, P64S, T74A, R79K, N86D, T88A, Q98H, T102S
B30: FJP05A03-H + GFmix3_KTHS-L (antibody, V domains shown)
VH: B1 VH with F27L, T28P, T35A, V48L
VL: DIVMTQTPLSLSVSPGETASISCRSSKSLTYSIGYNYLDWYMQKPGQSPQGLIYLGSKRASGVSDRFSGSGSGADFTLKISRVEADDAGVYYCMQGLHSPLSFGQGTKLEIKR
B31: FJP05A03-H + FJP10A09-L (antibody, V domains shown)
VH: B1 VH with F27L, T28P, T35A, V48L
VL: B30 VL with K27Q

Biological target: T1, Extracellular domain (ECD) of the …
Assay: SPR, Fab-SASA captured on BSA;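 further: biacore T200 SPR, Fab-SASA variants from E. coli conditioned medium captured on BSA-coated CM5 chip, canine IL-4RA injected 120 s then 420 s dissociation, 1:1 model fit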
Description: Forty-four PML clones were selected from each library for expression in E. coli in 96 deep-well plates by inoculating into 2YT medium and inducing with 0.2 mM IPTG overnight at room temperature. The Fab secreted in the medium was analyzed for binding activity by completing an ELISA. […] The 39 unique clones were confirmed by an off-rate screening assay in an SPR assay performed on a Biacore T200. For the SPR analyses, bovine serum albumin (BSA) was immobilized to CM5 sensor chip. The sensor chip surface was activated with 50 mmol/L H-Hydroxysuccinimide and 200 mmol/L 1-ethyl-3-(3-dimethylaminopropyl) carbodiimide hydrochloride for 420 s. Afterwards, BSA diluted in 10 mM sodium acetate, pH 4.5 was injected. After the amine coupling reaction, the remaining active coupling sites on the chip surface were blocked with 1 mM ethanolamine hydrochloride. The selected Fab-SASA variants in conditioned medium were captured on the BSA-coated chips. The running buffer was HBS-EP (10 mM HEPES 500 mM NaCl, 3 mM EDTA, 0.05% Tween 20, pH 7.4). After equilibration, canine IL-4RA was injected for 120 seconds (association phase) followed by the injection of running buffer for 420 sec (dissociation phase). The off-rates of the Fab-SASA clones were obtained from fitting the experimental data locally to a 1:1 interaction model using the Biacore T200 evaluation software.
B1 was tested, and the Kd was 12.5 nM, the “Ratio WT-kd/clone-kd” value was 0.7 and the koff was 0.00137 s⁻¹. The kon was 109000 M⁻¹ s⁻¹. In the case of B2, the Kd is reported as 3.27 nM, the “Ratio WT-kd/clone-kd” value is reported as 2.66 and the koff is reported as 0.000358 s⁻¹. The kon was 109000 M⁻¹ s⁻¹. In the case of B3, the Kd is reported as 8.2 nM, the “Ratio WT-kd/clone-kd” value is reported as 1.41 and the koff is reported as 0.000677 s⁻¹. The kon was 82600 M⁻¹ s⁻¹. In the case of B4, the Kd is reported as 8.34 nM, the “Ratio WT-kd/clone-kd” value is reported as 1.02 and the koff is reported as 0.000932 s⁻¹. For the same binder, the kon was 112000 M⁻¹ s⁻¹. For B5, the Kd was 9.76 nM, the “Ratio WT-kd/clone-kd” value was 0.3 and the koff was 0.00321 s⁻¹. For the same binder, the kon was 328000 M⁻¹ s⁻¹. With B6 the Kd was 27.3 nM, the “Ratio WT-kd/clone-kd” value was 0.51 and the koff was 0.00187 s⁻¹. It also gave a kon of 68600 M⁻¹ s⁻¹. With B7 the Kd was 15.9 nM, the “Ratio WT-kd/clone-kd” value was 0.86 and the koff was 0.00111 s⁻¹. The kon was 69700 M⁻¹ s⁻¹. With B8 the Kd was 11.8 nM, the “Ratio WT-kd/clone-kd” value was 1.54 and the koff was 0.000618 s⁻¹. It also gave a kon of 52200 M⁻¹ s⁻¹. B9 was tested, and the Kd was 15 nM, the “Ratio WT-kd/clone-kd” value was 0.91 and the koff was 0.00105 s⁻¹. For the same binder, the kon was 70400 M⁻¹ s⁻¹. B10 was tested, and the Kd was 6.83 nM, the “Ratio WT-kd/clone-kd” value was 1.74 and the koff was 0.000548 s⁻¹. For the same binder, the kon was 80100 M⁻¹ s⁻¹. For B11, the Kd was 6.61 nM, the “Ratio WT-kd/clone-kd” value was 1.94 and the koff was 0.000492 s⁻¹. The kon was 74400 M⁻¹ s⁻¹. In the case of B12, the Kd is reported as 20.1 nM, the “Ratio WT-kd/clone-kd” value is reported as 0.62 and the koff is reported as 0.00153 s⁻¹. For the same binder, the kon was 75900 M⁻¹ s⁻¹. For B13, the Kd was 8.8 nM, the “Ratio WT-kd/clone-kd” value was 1.32 and the koff was 0.00072 s⁻¹. The kon was 81800 M⁻¹ s⁻¹. For B14, the Kd was 7.97 nM, the “Ratio WT-kd/clone-kd” value was 1.42 and the koff was 0.000669 s⁻¹. For the same binder, the kon was 83900 M⁻¹ s⁻¹. B15 was tested, and the Kd was 15.5 nM, the “Ratio WT-kd/clone-kd” value was 0.96 and the koff was 0.000996 s⁻¹. It also gave a kon of 64200 M⁻¹ s⁻¹. In the case of B16, the Kd is reported as 4.15 nM, the “Ratio WT-kd/clone-kd” value is reported as 1.99 and the koff is reported as 0.00048 s⁻¹. It also gave a kon of 116000 M⁻¹ s⁻¹. B17 was tested, and the Kd was 14.9 nM, the “Ratio WT-kd/clone-kd” value was 0.97 and the koff was 0.000979 s⁻¹. It also gave a kon of 65700 M⁻¹ s⁻¹. For B18, the Kd was 13.4 nM, the “Ratio WT-kd/clone-kd” value was 1.09 and the koff was 0.000873 s⁻¹. The kon was 65300 M⁻¹ s⁻¹. B19 was tested, and the Kd was 12.7 nM, the “Ratio WT-kd/clone-kd” value was 0.94 and the koff was 0.00101 s⁻¹. For the same binder, the kon was 79800 M⁻¹ s⁻¹. B20 was tested, and the Kd was 6.53 nM, the “Ratio WT-kd/clone-kd” value was 1.7 and the koff was 0.000562 s⁻¹. It also gave a kon of 86000 M⁻¹ s⁻¹. In the case of B21, the Kd is reported as 5.74 nM, the “Ratio WT-kd/clone-kd” value is reported as 2.11 and the koff is reported as 0.000451 s⁻¹. The kon was 78500 M⁻¹ s⁻¹. In the case of B22, the Kd is reported as 4.52 nM, the “Ratio WT-kd/clone-kd” value is reported as 1.12 and the koff is reported as 0.00085 s⁻¹. It also gave a kon of 188000 M⁻¹ s⁻¹.

Biological target: T2, Extracellular domain (ECD) of the …
Assay: SPR, IgG captured via anti-dog Fc
Description: (§1) Both the heavy and light chain variants were evaluated for their binding kinetics to canine IL-4RA using SPR on a Biacore T200. The antibodies were captured using a CM5 Series S chip amine coupled with an anti-dog Fc antibody (Jackson Immunoresearch). […] The length of the association time was 120 s and the dissociation time was run for 600 s. The chip surface was regenerated with 10 mM glycine. Double reference-subtracted sensorgrams were fitted to a 1:1 binding model using Biacore T200 Evaluation software.
B23 gave a Kd of 0.377 nM, a koff of 0.000105 s⁻¹ and a kon of 279000 M⁻¹ s⁻¹. Binder B24 has a Kd of 0.381 nM, a koff of 9.71e-05 s⁻¹ and a kon of 255000 M⁻¹ s⁻¹. With B25 the Kd was 1.07 nM, the koff was 0.000253 s⁻¹ and the kon was 236000 M⁻¹ s⁻¹. For B26, the Kd was 0.878 nM, the koff was 0.000206 s⁻¹ and the kon was 235000 M⁻¹ s⁻¹. For B27, the Kd was 0.908 nM, the koff was 0.000208 s⁻¹ and the kon was 230000 M⁻¹ s⁻¹.

Biological target: T2, Extracellular domain (ECD) of the …
Assay: SPR, IgG captured via anti-dog Fc
Remark: another data set of the same source
Description: as §1
Six different combinations of heavy and light chain variants (Table 30) were co-transfected and produced as described above. The binding kinetics of the heavy and light chain variants to canine IL-4RA was determined using the SPR methods described above.
With B28 the Kd was 0.169 nM, the koff was 8.32e-05 s⁻¹ and the kon was 492000 M⁻¹ s⁻¹. Work on B29 yielded a Kd of 0.167 nM, a koff of 7e-05 s⁻¹ and a kon of 419000 M⁻¹ s⁻¹. Work on B30 yielded a Kd of 0.187 nM, a koff of 8.68e-05 s⁻¹ and a kon of 466000 M⁻¹ s⁻¹. Work on B31 yielded a Kd of 0.201 nM, a koff of 8.87e-05 s⁻¹ and a kon of 442000 M⁻¹ s⁻¹.
